Entries after “also recorded” stand apart in the source; their conditions may differ.
Columns and labels:
CXCR4 mutant 3 (D187V) = molecular target: T1, CXCR4 mutant 3 (D187V) (Homo sapiens, UniProt P61073, D187V); assay: Footprint assay, flow cytometry binding to CXCR4 D187V on Hek293T cells; details: Myc-tag detection, 10 nM and 100 nM Nanobody, average n = 3, relative to hCXCR4
T1 construct: expressed in transfected cells; host or cells: Hek293T, transient, pcDNA3.1
From the text: (§1) Based on the data from example 1.8, we introduced 3 single point-mutations in ECL2 of CXCR4 that allowed to discriminate between 238D2 and 238D4-like epitopes: V196E (specifically disturbing D2 binding)-SEQ ID NO: 20, D187V (specifically disturbing D4 binding)-SEQ ID NO: 21, F189V (disturbing binding of both D2 and D4)-SEQ ID NO: 19. […] For the epitope mapping, transient transfections of the three CXCR4 mutants and wildtype human CXCR4 in the pcDNA3.1 vector were done in Hek293T cells, after which Nanobody binding of different families was assessed by flow cytometry using detection of the Myc-tag, followed by secondary anti-mouse PE. Two concentrations of Nanobody were tested, 10 nM and 100 nM, and experiment was repeated with essentially the same results. Binding of the Nanobodies to HEK293T hCXCR4 cells was used for normalization using the following formulas:
(§2) Percentage of binding to the mutant receptors was calculated for each Nanobody concentration, and a position was considered as critical when less than 25% residual binding (average of n=3) was observed (Table C-5). […] Nanobodies could be grouped according to their different binding patterns, not only in “238D2-like” or “epitope A binders” and “238D4-like” or “epitope B binders” but also into other new groups.

CXCR4 [1] = molecular target: T2, CXCR4 (Homo sapiens, UniProt P61073); assay: Competition binding, displacement of [^125I]-CXCL12 on membranes from HEK293T cells transiently expressing CXCR4
T2 construct: expressed in transfected cells; host or cells: HEK293T, transient; membrane fraction
Method: (§3) Iodine incorporation and specific activity were controlled via precipitation of the protein with trichloroacetic acid.
(§4) Competition binding assay—Periplasmic fractions were screened in a competition binding assay using membranes from HEK293T cells transiently expressing CXCR4. […] Membranes were then harvested over polyethylenimine (0.5%)-treated Whatman GF/C filter plates and washed three times with ice cold binding buffer containing 500 mM NaCl. Plates were counted by liquid scintillation.
(§5) Characterization of Nanobody binding to CXCR4—Following purification, receptor binding to characteristics for 238D2 and 238D4 were investigated on cell membranes from HEK293T cells transiently expressing CXCR4.
(§6) Data analysis and presentation—Data are presented as mean±S.E.M. from n independent experiments. Concentration response curves (E/[A] curves) were fitted to the Hill equation using an iterative, least-squares method (GraphPad Prism 4.0, GraphPad Software, San Diego, Calif.) to provide maximal inhibitory effects (Imax), half maximal effective (EC50) or inhibitory concentrations (IC50). Competition binding affinities and functional antagonist affinities (Ki) were calculated using the Cheng and Prusoff equation Ki=IC50/(1+[agonist]/EC50) (Cheng & Prusoff, 1973).

CXCR4 (N119A) [2] = molecular target: T3, CXCR4 (N119A) (Homo sapiens, UniProt P61073, N119A); assay: Competition binding with [125I]-CXCL12 on constitutively active CXCR4 mutant N119A; details: competition with [125I]-CXCL12 (40 pM)
T3 construct: expressed in transfected cells; host or cells: HEK293T, transient; membranes in A4, whole cells in A5
Method: Competition binding assay—Periplasmic fractions were screened in a competition binding assay using membranes from HEK293T cells transiently expressing CXCR4. In short, periplasmic extracts (1:10) or ligands were pre-incubated with membranes in binding buffer (50 mM HEPES (pH 7.4), 1 mM CaCl2, 5 mM MgCl2, 100 mM NaCl, 0.5% bovine serum albumin) supplemented with 0.5% BSA for 1 h at 22° C. before the addition of [^125I]-CXCL12 (40 pM) or [^125I]-238D2 (3 nM) or [^125I]-238D4 (3 nM) for additional 2 h at 22° C. […] Membranes were then harvested over polyethylenimine (0.5%)-treated Whatman GF/C filter plates and washed three times with ice cold binding buffer containing 500 mM NaCl. Plates were counted by liquid scintillation.
CXCR4—specific Nanobodies behave as neutral antagonists or inverse agonists on constitutively active mutants of CXCR4—The CXCR4—specific monovalent Nanobodies 238D2 and 238D4 as well as their bivalent fusion products L3 and L8 were investigated on the constitutively active CXCR4 mutant N119A (equivalent to N3.35A in the Ballestros-Weinstein numbering of class A GPCRs). […] Despite of the large number of CAMs for other class A GPCRs and further efforts to generate additional CAMs for CXCR4 (Berchiche et al., 2007), the N119 mutants of CXCR4 remain the only known CAMs for this receptor. […] Methods: Preparation of membranes and competition binding experiments with [125I]-CXCL12 (40 pM) were performed as described before for wild type CXCR4 (vide supra).

wildtype human CXCR4 = molecular target: T4, wildtype human CXCR4 (Homo sapiens, UniProt P61073); assay: Footprint assay, flow cytometry binding to wildtype human CXCR4 on Hek293T cells; details: Myc-tag detection, 10 nM and 100 nM Nanobody, average n = 3, wild type used for normalization
T4 construct: expressed in transfected cells; host or cells: Hek293T, transient, pcDNA3.1
From the text: as §1, §2

CXCR4 [3] = molecular target: T2, CXCR4; assay: Competition binding, displacement of [^125I]-238D2 on membranes from HEK293T cells transiently expressing CXCR4; details: mean ± S.E.M.
Method: as §3, §4, §5, §6

CXCR4 mutant 2 (V196E) = molecular target: T5, CXCR4 mutant 2 (V196E) (Homo sapiens, UniProt P61073, V196E); assay: Footprint assay, flow cytometry binding to CXCR4 V196E on Hek293T cells; details: Myc-tag detection, 10 nM and 100 nM Nanobody, average n = 3, relative to hCXCR4
T5 construct: expressed in transfected cells; host or cells: Hek293T, transient, pcDNA3.1
From the text: as §1, §2

CXCR4 mutant 1 (F189V) = molecular target: T6, CXCR4 mutant 1 (F189V) (Homo sapiens, UniProt P61073, F189V); assay: Footprint assay, flow cytometry binding to CXCR4 F189V on Hek293T cells; details: Myc-tag detection, 10 nM and 100 nM Nanobody, average n = 3, relative to hCXCR4
T6 construct: expressed in transfected cells; host or cells: Hek293T, transient, pcDNA3.1
From the text: as §1, §2

CXCR4 (N119A) [4] = molecular target: T3, CXCR4 (N119A); assay: Basal inositol phosphate accumulation in HEK293T cells transiently expressing CXCR4 (N119A); assay type: cell-based; details: ligand-induced alteration of basal inositol phosphate accumulation
From the text: The functional profile of monovalent Nanobodies 238D2 and 238D4 as well as their bivalent fusion products L3 and L8 on CXCR4 (N119A) were investigated by measurement of the ligand-induced alteration of the basal inositol phosphate accumulation. HEK293T cells transiently expressing CXCR4 (N119A) show a 3-8 times higher basal rate of inositol phosphate accumulation compared to wild type CXCR4 or mock (which are virtually at the same level). […] The nanobody-induced reduction of basal inositol phosphate accumulation was antagonized by the selective neutral CXCR4 antagonist plerixafor confirming that the observed […] effects are mediated via CXCR4 (N119A).

[5] = molecular target: all CXCR4 library clones containing a mutation at S178; assay: immunofluorescence, average over all clones with a mutation at S178
[6] = molecular target: all CXCR4 library clones containing a mutation at D187; assay: immunofluorescence, average over all clones with a mutation at D187

T3 sequence (P61073 whole entry N119A): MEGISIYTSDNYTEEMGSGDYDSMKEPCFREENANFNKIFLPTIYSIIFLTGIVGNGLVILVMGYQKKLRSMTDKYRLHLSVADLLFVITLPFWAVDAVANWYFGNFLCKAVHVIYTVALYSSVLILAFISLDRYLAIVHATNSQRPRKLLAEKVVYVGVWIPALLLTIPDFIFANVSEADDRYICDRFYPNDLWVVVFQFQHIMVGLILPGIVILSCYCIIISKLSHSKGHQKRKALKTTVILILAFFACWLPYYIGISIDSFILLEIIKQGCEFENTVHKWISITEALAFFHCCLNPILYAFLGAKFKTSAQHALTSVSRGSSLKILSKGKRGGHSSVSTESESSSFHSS
T2 sequence (P61073 whole entry): as the sequence (P61073 whole entry N119A) above, with A119N counted along it
T4 sequence (P61073 whole entry): as the sequence (P61073 whole entry N119A) above, with A119N counted along it
T5 sequence (P61073 whole entry V196E): as the sequence (P61073 whole entry N119A) above, with A119N, V196E counted along it
T6 sequence (P61073 whole entry F189V): as the sequence (P61073 whole entry N119A) above, with A119N, F189V counted along it
T1 sequence (P61073 whole entry D187V): as the sequence (P61073 whole entry N119A) above, with A119N, D187V counted along it

functional antagonist affinities (Ki) to CXCR4 (CXCR4 [1]; in words, [^125I]-CXCL12 displacement) | [^125I]-CXCL12 Displacem. (%) (CXCR4 [1]; maximal displacement, membranes from HEK293T cells transiently expressing CXCR4, mean ± S.E.M.) | [^125I]-CXCL12 pKi (CXCR4 [1]; receptor affinity, membranes from HEK293T cells transiently expressing CXCR4, mean ± S.E.M.) | [^125I]-238D2 Displacem. (%) (CXCR4 [3]; maximal displacement) | [^125I]-238D2 pKi (CXCR4 [3]; receptor affinity) | Molecule | HEK293T D187V binding (CXCR4 mutant 3 (D187V)) | displacement of specifically bound [^125I]-CXCL12 (in words) (CXCR4 [1]; membranes from HEK293T cells transiently expressing CXCR4) | binding affinities to CXCR4 (N119A) compared to wild type (in words) (CXCR4 (N119A) [2]) | binding to CXCR4 (N119A) (in words) (CXCR4 (N119A) [2]; highest nanobody test concentration 2 μM) | HEK293T CXCR4 binding (wildtype human CXCR4) | Hek293T V196E binding (CXCR4 mutant 2 (V196E)) | HEK293T F189V binding (CXCR4 mutant 1 (F189V)) | functional profile on CXCR4 (N119A) (in words) (CXCR4 (N119A) [4]) | average nanobody reactivity [5] [%] | average nanobody reactivity [6] [%]
low nanomolar range | 93 ± 5 | 8.01 ± 0.12 | 97 ± 6 | 8.41 ± 0.11 | 238D2: monovalent anti CXCR4 Nanobody, SEQ ID NO: 2 (protein, Nanobody) VHH: EVQLVESGGGLVQTGGSLRLSCAASGFTFSSYAMSWVRQAPGKGLEWVSGIKSSGDSTRYAGSVKGRFTISRDNAKNMLYLQMYSLKPEDTAVYYCAKSRVSRTGLYTYDNRGQGTQVTVSS | + (>75% binding to mutant rel. to hCXCR4) | strongly displacing; also recorded: fully displace | somewhat less compared to the wild type receptor | able to bind to CXCR4 (N119A); also recorded: clearly bind to the mutant receptor | + (>75% binding to mutant rel. to hCXCR4) | − (<=25% binding to mutant rel. to hCXCR4) | − (<=25% binding to mutant rel. to hCXCR4) | Only antagonistic but no significant inverse agonistic activities |  | 
 |  |  |  |  | Nanobody 238D4 (VHH) VHH: EVQLMESGGGLVQAGGSLRLSCAASGRTFNNYAMGWFRRAPGKEREFVAAITRSGVRSGVSAIYGDSVKDRFTISRDNAKNTLYLQMNSLKPEDTAVYTCAASAIGSGALRRFEYDYSGQGTQVTVSS |  |  |  |  |  |  |  |  | 23.2 | -12.2

From patent publication US20110117113A1, “IMMUNOGLOBULIN SINGLE VARIABLE DOMAIN DIRECTED AGAINST HUMAN CXCR4 AND OTHER CELL ASSOCIATED PROTEINS AND METHODS TO GENERATE THEM” (priority 2009, published 2011)
